Assay [1] addresses CLL183 Fab (Fab of the BcR IG of CLL subset no. 4 case CLL183) (human). Description: AUC; sedimentation equilibrium, 0.1, 0.15 and 0.26 mg ml^-1 in storage buffer, 20 °C, four speeds, global fit with a two-state self-association model; dimer to monomers.
The target is the same in assay [2]. Briefly: AUC; sedimentation velocity, absorbance detection, 72,756g, 20 °C; CLL240 and wild-type CLL183 at 0.1, 0.2 and 0.4 mg ml^-1, CLL183 mutants and the other Fabs up to 1 mg ml^-1; storage buffer (50 mM Tris pH 7, 100 mM glycine) and PBS; monomer-dimer; koff from simultaneous fit of three ….
For assay [3], the target named is CLL240 Fab (Fab of the BcR IG of CLL subset no. 4 case CLL240) (human). Description: AUC; sedimentation equilibrium, 0.1, 0.15 and 0.26 mg ml^-1 in storage buffer, 20 °C, four speeds, global fit with a two-state self-association model; dimer to monomers.
Assay [4] shares this target. Description: AUC; sedimentation velocity, absorbance detection, 72,756g, 20 °C; CLL240 and wild-type CLL183 at 0.1, 0.2 and 0.4 mg ml^-1, CLL183 mutants and the other Fabs up to 1 mg ml^-1; storage buffer (50 mM Tris pH 7, 100 mM glycine) and PBS; monomer-dimer; koff from simultaneous fit of three ….
Assay [5] deals with P11475 IgM Fab fragment (Fab of the BcR IG of CLL subset no. 2 case P11475) (human). Description: ITC; dilution ITC, VP-ITC, 20 °C; 20 mM Tris pH 7.4, 100 mM glycine, 100 mM NaCl; Fab at the maximum achievable concentration (300-400 μM) injected into buffer; dimer to monomers. For orientation: ITC needs no label: the signal is the heat of the interaction.
Assay [6] has the same target. Description: AUC; sedimentation velocity, absorbance detection, 72,756g, 20 °C; CLL240 and wild-type CLL183 at 0.1, 0.2 and 0.4 mg ml^-1, CLL183 mutants and the other Fabs up to 1 mg ml^-1; storage buffer (50 mM Tris pH 7, 100 mM glycine) and PBS; monomer-dimer; koff from simultaneous fit of three ….

By Kd is commonly meant the free concentration of one partner at which half of the binding sites on the other are occupied at equilibrium, for simple one-to-one binding. The koff is the rate constant with which the complex falls apart. Low values mean slow dissociation, high ones fast dissociation. Usually stoichiometry N stands for the number of molecules, sites or subunits per partner or assembly.

Where only a bound is given, the exact number is not on record here.

B1: CLL183 Fab (Fab of the BcR IG of CLL subset no. 4 case CLL183) (Fab, V domains shown)
VH: QLQLQQWGAGLLKPSETLSLTCAVYGGSFSGYYWTWIRQSPGKGLEWIGEINHSGSTTYNPSLKSRVTISVDTSKNQFSLKLNSVTAADTAVYYCARGYGDTPTIRRYYYYGMDVWGQGTTVTVSS
VL: DVVMTQSPLSLPVTLGQPASISCRSSQSLVHSDGNTYLNWFQQRPGQSPRRLIYKVSDRDSGVPDRFSGSGSGTDFTLKISRVEAEDVGLYYCMQGTHWPPYTFGQGTKVEIK
Take B1: the dissociation constant Kd in assay [1] amounted to 15.6 µM. In assay [2], this molecule showed a dissociation rate constant (koff) of 1.99e-05 s⁻¹ and a stoichiometry N of 2.

B2: CLL240 Fab (Fab of the BcR IG of CLL subset no. 4 case CLL240) (Fab, V domains shown)
VH: QVQLQQWGAGLLKPSETLSLNCAVYGESFSGYYWSWIRQPPGKGLEWIGEINHSGSTNYNPSLKSRVTISVDTSKNQFSLKLSSVTAADAAIYYCARGYADTPVFRRYYYYGMDVWAKGTTVTVSS
VL: DIVMTQSPLSLPVTLGQPASISCRSSQSLVHSDGNTYLNWFQQRPGQSPRRLIYKVSDRDSGVPDRFSGSGSGTDFTLKISRVEAEDVGVYYCMQGTHWPPYTFGQGTKVEIK
As for B2, in assay [3], the Kd was 14 µM. Also, in assay [4], the koff came to 0.000263 s⁻¹ and the stoichiometry N came to 2.

B3: P11475 IgM Fab fragment (Fab of the BcR IG of CLL subset no. 2 case P11475) (Fab, V domains shown)
VH: EVQLVESGGGLVKPGGSLRLSCAASGFTFRSYSMNWVRQAPGKGLEWVSSIISSSSYIYYADSVKGRFTISRDNAKNSLYLQMNSLRAEDTALYYCARDQNAMDVWGQGTTVTVSS
VL: SYELTQPPSVSVAPGKTARITCAGNNIGSKSVHWYQQKPGQAPVLVIYYDSDRPSGIPERFSGSNSGNTATLTISRVEAGDEADYYCQVWDSGSDHPWVFGGGTKLTVL
In assay [5], B3 returned a dissociation constant (Kd) of 430 µM and a dH of -5.4 kcal/mol. In assay [6], this molecule came in with an off-rate constant (koff) greater than 0.01 s⁻¹.

Source of the values: paper PMC5472768.
